Reference: US20070141060A1, “Hmgb1 protein inhibitors for the regulation of smooth muscle cells and endothelial cells profileration” (BIO3 RESEARCH SRL, priority 2004, published 2007)

Assays:
Type in all cases: cell-based
[1] = test system: 3T3 mouse fibroblasts; assay: Proliferation of 3T3 mouse fibroblasts in similar conditions; conditions: data not shown
[2] = test system: bovine smooth muscle; assay: Proliferation of bovine smooth muscle cells (cell counting)
Method: (§1) Bovine aorta endothelial cells or bovine smooth muscle at an early passage were cultured in DMEM+10% FCS. Cells were then kept for 16 hours in DMEM in absence of FCS, and plated in 6 cm wells of 6-well plates (about 50 000 cells per well). Cells were then cultured, in triplicate, in the presence of DMEM alone, DMEM+10% FCS, or DMEM+different concentrations of HMGB1. At 24 hours intervals cells were counted under the microscope.

[3] = test system: Bovine aorta endothelial cells; assay: Proliferation of bovine aorta endothelial cells (cell counting); conditions: DMEM + different concentrations of HMGB1, no FCS; cells counted at 24 hours intervals; FIG. 1
Method: as §1

B1: HMGB1: HMGB1 protein, released after mechanical injury of cells; induces smooth muscle cell and endothelial cell proliferation (protein, UniProt P09429 1-215, looked up)
High mobility group protein B1: MGKGDPKKPRGKMSSYAFFVQTCREEHKKKHPDASVNFSEFSKKCSERWKTMSAKEKGKFEDMAKADKARYEREMKTYIPPKGETKKKFKDPNAPKRPPSAFFLFCSEYRPKIKGEHPGLSIGDVAKKLGEMWNNTAADDKQPYEKKAAKLKEKYEKDIAAYRAKGKPDAAKKGVVKAEKSKKKKEEEEDEEDEEDEEEEEDEEDEDEEEDDDDE
- proliferation of 3T3 mouse fibroblasts [1]: does not cause the proliferation
- cell division / proliferation of BSMC ([2]; DMEM + different concentrations of HMGB1, no FCS, single addition, cells counted at 24 hours intervals, FIG. 1): a couple of rounds of division in BSMC, followed by quiescence
- cell proliferation of BSMC on repeated addition ([2]; repeated addition of HMGB1 every 24 hours, data not shown): keep proliferating
- cell division / proliferation of BAEC [3]: keep dividing
